Data: the RNAGym collection of RNA variant scans (doi:10.1101/gr.219683.116)

B1: mRNA-splicing (parent)
chain: AGUUGCUGCUGGGAGCUCCAGCACAGUGAAAUGGACAGAAGGGCAGAGCAA

Variants of: B1
Test: exon inclusion enrichment index; higher = more inclusion; WT1 exon 5 minigene, HEK293

Variant	exon inclusion enrichment index
AGUCUAAGAAGGGAGCUCCAGCACAGUGAAAUGGACAGAAGGGCAGAGCAA [U4C G5U C6A U7A C9A U10A]	0.296
AGUCUGGGAUGGGAGCUCCAGCACAGUGAAAUGGACAGAAGGGCAGAGCAA [U4C G5U C6G U7G C9A]	0.461
AGUCUGCGCCGGGAGCUCCAGCACAGUGAAAUGGACAGAAGGGCAGAGCAA [U4C G5U C6G U7C U10C]	4.01
AGUCCCCACCGGGAGCUCCAGCACAGUGAAAUGGACAGAAGGGCAGAGCAA [U4C G5C U7C G8A U10C]	1.51
AGUCUCUUUUGGGAGCUCCAGCACAGUGAAAUGGACAGAAGGGCAGAGCAA [U4C G5U G8U C9U]	0.371
AGUCGCUUUUGGGAGCUCCAGCACAGUGAAAUGGACAGAAGGGCAGAGCAA [U4C G8U C9U]	2.06
AGUAGCUUUUGGGAGCUCCAGCACAGUGAAAUGGACAGAAGGGCAGAGCAA [U4A G8U C9U]	0.0172
AGUCGAAGAAGGGAGCUCCAGCACAGUGAAAUGGACAGAAGGGCAGAGCAA [U4C C6A U7A C9A U10A]	1.51
AGUAUACGACGGGAGCUCCAGCACAGUGAAAUGGACAGAAGGGCAGAGCAA [U4A G5U C6A U7C C9A U10C]	2.45
AGUAUUUCUCGGGAGCUCCAGCACAGUGAAAUGGACAGAAGGGCAGAGCAA [U4A G5U C6U G8C C9U U10C]	0.723
AGUCAUUCUCGGGAGCUCCAGCACAGUGAAAUGGACAGAAGGGCAGAGCAA [U4C G5A C6U G8C C9U U10C]	1.56
AGUCGUUCUCGGGAGCUCCAGCACAGUGAAAUGGACAGAAGGGCAGAGCAA [U4C C6U G8C C9U U10C]	2.37
AGUCGUAUAUGGGAGCUCCAGCACAGUGAAAUGGACAGAAGGGCAGAGCAA [U4C C6U U7A G8U C9A]	1.12
AGUCCGCGCCGGGAGCUCCAGCACAGUGAAAUGGACAGAAGGGCAGAGCAA [U4C G5C C6G U7C U10C]	3.81
AGUCGACGACGGGAGCUCCAGCACAGUGAAAUGGACAGAAGGGCAGAGCAA [U4C C6A U7C C9A U10C]	4.65
AGUCUACGACGGGAGCUCCAGCACAGUGAAAUGGACAGAAGGGCAGAGCAA [U4C G5U C6A U7C C9A U10C]	4.16
AGUCCCUUUUGGGAGCUCCAGCACAGUGAAAUGGACAGAAGGGCAGAGCAA [U4C G5C G8U C9U]	0.112
AGUAUACACAGGGAGCUCCAGCACAGUGAAAUGGACAGAAGGGCAGAGCAA [U4A G5U C6A U7C G8A U10A]	0.0592
AGUCUUAUAUGGGAGCUCCAGCACAGUGAAAUGGACAGAAGGGCAGAGCAA [U4C G5U C6U U7A G8U C9A]	0.269
AGUCCACGACGGGAGCUCCAGCACAGUGAAAUGGACAGAAGGGCAGAGCAA [U4C G5C C6A U7C C9A U10C]	3.54
AGUCCGGGAUGGGAGCUCCAGCACAGUGAAAUGGACAGAAGGGCAGAGCAA [U4C G5C C6G U7G C9A]	2.21
AGUCAACACAGGGAGCUCCAGCACAGUGAAAUGGACAGAAGGGCAGAGCAA [U4C G5A C6A U7C G8A U10A]	0.437
AGUCGACACAGGGAGCUCCAGCACAGUGAAAUGGACAGAAGGGCAGAGCAA [U4C C6A U7C G8A U10A]	1.12
AGUCGGCGCCGGGAGCUCCAGCACAGUGAAAUGGACAGAAGGGCAGAGCAA [U4C C6G U7C U10C]	3.95
AGUCAACGACGGGAGCUCCAGCACAGUGAAAUGGACAGAAGGGCAGAGCAA [U4C G5A C6A U7C C9A U10C]	4.23
AGUCUCCACCGGGAGCUCCAGCACAGUGAAAUGGACAGAAGGGCAGAGCAA [U4C G5U U7C G8A U10C]	1.83

Variant	exon inclusion enrichment index
AGUAUCUUUUGGGAGCUCCAGCACAGUGAAAUGGACAGAAGGGCAGAGCAA [U4A G5U G8U C9U]	0.252
AGUAUUAUAUGGGAGCUCCAGCACAGUGAAAUGGACAGAAGGGCAGAGCAA [U4A G5U C6U U7A G8U C9A]	0.0503
AGUAUCCACCGGGAGCUCCAGCACAGUGAAAUGGACAGAAGGGCAGAGCAA [U4A G5U U7C G8A U10C]	2.36
AGUCCUAUAUGGGAGCUCCAGCACAGUGAAAUGGACAGAAGGGCAGAGCAA [U4C G5C C6U U7A G8U C9A]	0.704
AGUCGCUGCUGGGAGCUCCAGCACAGUGAAAUGGACAGAAGGGCAGAGCAA [U4C]	0.365
AGUCACCACCGGGAGCUCCAGCACAGUGAAAUGGACAGAAGGGCAGAGCAA [U4C G5A U7C G8A U10C]	3.18
AGUCACUGCUGGGAGCUCCAGCACAGUGAAAUGGACAGAAGGGCAGAGCAA [U4C G5A]	0.0447
AGUCCCUGCUGGGAGCUCCAGCACAGUGAAAUGGACAGAAGGGCAGAGCAA [U4C G5C]	0.153
AGUCUCUGCUGGGAGCUCCAGCACAGUGAAAUGGACAGAAGGGCAGAGCAA [U4C G5U]	0.105
AGUCAUAUAUGGGAGCUCCAGCACAGUGAAAUGGACAGAAGGGCAGAGCAA [U4C G5A C6U U7A G8U C9A]	0.47
AGUAUAAGAAGGGAGCUCCAGCACAGUGAAAUGGACAGAAGGGCAGAGCAA [U4A G5U C6A U7A C9A U10A]	0.0651
AGUCAGCGCCGGGAGCUCCAGCACAGUGAAAUGGACAGAAGGGCAGAGCAA [U4C G5A C6G U7C U10C]	3.53
AGUCCACACAGGGAGCUCCAGCACAGUGAAAUGGACAGAAGGGCAGAGCAA [U4C G5C C6A U7C G8A U10A]	0.286
AGUCAGGGAUGGGAGCUCCAGCACAGUGAAAUGGACAGAAGGGCAGAGCAA [U4C G5A C6G U7G C9A]	0.0522
AGUCUUUCUCGGGAGCUCCAGCACAGUGAAAUGGACAGAAGGGCAGAGCAA [U4C G5U C6U G8C C9U U10C]	1.08
AGUCCUUCUCGGGAGCUCCAGCACAGUGAAAUGGACAGAAGGGCAGAGCAA [U4C G5C C6U G8C C9U U10C]	2.17
AGUAUGCGCCGGGAGCUCCAGCACAGUGAAAUGGACAGAAGGGCAGAGCAA [U4A G5U C6G U7C U10C]	1.96
AGUCAAAGAAGGGAGCUCCAGCACAGUGAAAUGGACAGAAGGGCAGAGCAA [U4C G5A C6A U7A C9A U10A]	0.662
AGUCACUUUUGGGAGCUCCAGCACAGUGAAAUGGACAGAAGGGCAGAGCAA [U4C G5A G8U C9U]	0.77
AGUCGGGGAUGGGAGCUCCAGCACAGUGAAAUGGACAGAAGGGCAGAGCAA [U4C C6G U7G C9A]	0.355
AGUAUGGGAUGGGAGCUCCAGCACAGUGAAAUGGACAGAAGGGCAGAGCAA [U4A G5U C6G U7G C9A]	0.0707
AGUCGCCACCGGGAGCUCCAGCACAGUGAAAUGGACAGAAGGGCAGAGCAA [U4C U7C G8A U10C]	3.91
AGUAGCCACCGGGAGCUCCAGCACAGUGAAAUGGACAGAAGGGCAGAGCAA [U4A U7C G8A U10C]	0.474
AGUCUACACAGGGAGCUCCAGCACAGUGAAAUGGACAGAAGGGCAGAGCAA [U4C G5U C6A U7C G8A U10A]	0.501
AGUCCAAGAAGGGAGCUCCAGCACAGUGAAAUGGACAGAAGGGCAGAGCAA [U4C G5C C6A U7A C9A U10A]	1.37
